# How the values were obtained:
# [1] = biological target: VP64-C7-ER (Zif268 variant C7 + mER LBD G525R) (synthetic) (UniProt P08046); assay: cell_activity; settings: HeLa luciferase, 4-OHT-induced
# [2] = biological target: VP64-C7-PR (Zif268 variant C7 + hPR LBD aa645-914) (synthetic) (UniProt P08046); assay: cell_activity; settings: HeLa luciferase, RU486-induced
# VP16-C7-PR (synthetic) = VP16-C7-PR (synthetic) (UniProt P08046); assay: cell_activity; settings: RU486-induced, HeLa; no response to 4-OHT
# VP16-C7-ER (synthetic) = VP16-C7-ER (synthetic) (UniProt P08046); assay: cell_activity; settings: 4-OHT-induced, HeLa; no response to RU486
# [3] = tested on: B3 three-finger zinc finger protein (Sp1C framework, designed) (synthetic); assay: EMSA; settings: Zn buffer (90 uM ZnCl2, 90 mM KCl, 1 mM MgCl2), 3 h room temperature
# [4] = tested on: E2C-RE-VP64 (hRXRa + Drosophila EcR LBDs) (synthetic); assay: cell_activity; settings: Ponasterone A-induced; significant basal activity
sequence,measurement,setting,value
"GAGGGTACCGCGTGGGCGAAAAAGCGTGGGCGAGTCGACTCTAGAGGGTATATAATGG (double strand) [C7 direct repeat, 3 bp spacer, TATA reporter]",activity,[1],9.5 fold
same,activity,[2],3.9 fold
GCGTGGGCG (double strand) [10xC7-TATA-luc],activity,VP16-C7-PR (synthetic),26 fold
same,activity,VP16-C7-ER (synthetic),43 fold
GGAGGGGAC [B3 target site oligonucleotide],Kd,[3],15 nM
GGGGCCGGAGCCGCAGTG (double strand) [E2C-TATA-luc single E2C site],activity,[4],3 fold

# Source: patent US7741110
